Data on four molecules can be found in PMC9482650, “Quantitative fragmentomics allow affinity mapping of interactomes” (Nature Communications, 2022).

Some targets named below: Inadl_2, Q8NI35; TJP1_2, Q07157; Inadl_1, Q8NI35; GOPC, Q9HD26; LAP2, Q96RT1; DLG5_1, Q8TDM6; SCRIB_2, Q14160; GRIP2_4, Q9C0E4; GRID2IP_2, A4D2P6; DLG2_3, Q15700; GRASP, Q7Z6J2; MAGI1_2, Q96QZ7.
Common to all, as to assay: holdup assay
What all share (set-up): key: below the threshold = too weak to quantify, mostly under pKd 3.1 to 4
Common to all, as to settings: plain residues with an end cap or a label only (N-terminal biotin on a linker: ado-ado)

A further assay has as its target T1, MPDZ_12, O75970.
T1 sequence (O75970 1857-1958, limits assumed, looked up): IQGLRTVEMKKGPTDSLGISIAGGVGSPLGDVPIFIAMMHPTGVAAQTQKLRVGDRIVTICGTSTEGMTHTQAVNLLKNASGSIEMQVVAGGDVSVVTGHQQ

For the next assay, the target named is T2, GRIP1_3, Q9Y3R0.
T2 sequence (Q9Y3R0 247-346, limits assumed, looked up): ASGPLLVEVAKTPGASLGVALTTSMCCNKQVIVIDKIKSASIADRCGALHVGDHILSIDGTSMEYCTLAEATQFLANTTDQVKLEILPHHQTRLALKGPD

The target of a further assay is T3, DLG3_2, Q92796.
T3 sequence (Q92796 221-321, limits assumed, looked up): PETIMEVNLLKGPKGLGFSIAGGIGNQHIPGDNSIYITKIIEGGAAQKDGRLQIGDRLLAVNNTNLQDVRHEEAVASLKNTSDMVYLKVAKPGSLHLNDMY

Another assay concerns the target T4, APBA1_1, Q02410.
T4 sequence (Q02410 651-752, limits assumed, looked up): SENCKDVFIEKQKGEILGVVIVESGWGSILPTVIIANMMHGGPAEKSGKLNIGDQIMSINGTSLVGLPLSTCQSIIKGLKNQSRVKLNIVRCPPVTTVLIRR

For the next assay, the target named is T5, PARD3B_1, Q8TEW8.
T5 sequence (Q8TEW8 196-299, limits assumed, looked up): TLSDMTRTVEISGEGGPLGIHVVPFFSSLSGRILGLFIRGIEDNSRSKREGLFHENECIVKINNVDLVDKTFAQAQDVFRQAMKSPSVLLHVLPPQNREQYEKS

A further assay has as its target T6, HTRA3, P83110.
T6 sequence (P83110 354-453, limits assumed, looked up): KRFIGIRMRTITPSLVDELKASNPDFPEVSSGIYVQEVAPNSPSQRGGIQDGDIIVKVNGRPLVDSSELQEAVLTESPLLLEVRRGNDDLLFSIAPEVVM

The target in a further assay is T7, SHANK1, Q9Y566.
T7 sequence (Q9Y566 658-767, limits assumed, looked up): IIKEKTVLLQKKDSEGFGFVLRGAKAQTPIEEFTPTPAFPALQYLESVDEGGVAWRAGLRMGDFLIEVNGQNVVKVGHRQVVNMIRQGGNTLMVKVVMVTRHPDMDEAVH

A further assay has as its target T8, MPP6, Q9NZW5.
T8 sequence (Q9NZW5 125-219, limits assumed, looked up): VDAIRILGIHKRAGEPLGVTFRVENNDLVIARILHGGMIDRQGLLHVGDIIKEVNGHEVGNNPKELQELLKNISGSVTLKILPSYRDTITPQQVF

A further assay concerns the target T9, GRIP1_2, Q9Y3R0.
T9 sequence (Q9Y3R0 145-248, limits assumed, looked up): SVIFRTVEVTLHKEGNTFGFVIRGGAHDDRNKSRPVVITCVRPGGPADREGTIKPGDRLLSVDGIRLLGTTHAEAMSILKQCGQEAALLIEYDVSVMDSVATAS

The target of another assay is T10, ARHGEF11, O15085.
T10 sequence (O15085 42-136, limits assumed, looked up): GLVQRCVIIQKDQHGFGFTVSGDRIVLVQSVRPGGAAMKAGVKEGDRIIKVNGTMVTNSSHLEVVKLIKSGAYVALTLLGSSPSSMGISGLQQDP

In another assay the target is T11, APBA2_2, Q99767.
T11 sequence (Q99767 654-744, limits assumed, looked up): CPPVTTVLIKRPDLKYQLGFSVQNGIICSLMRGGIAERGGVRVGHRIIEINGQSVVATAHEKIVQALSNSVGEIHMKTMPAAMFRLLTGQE

A further assay has as its target T12, DLG3_3, Q92796.
T12 sequence (Q92796 374-475, limits assumed, looked up): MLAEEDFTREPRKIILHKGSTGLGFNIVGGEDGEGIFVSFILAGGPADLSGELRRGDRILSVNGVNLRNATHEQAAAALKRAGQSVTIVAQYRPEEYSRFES

Chain of Inadl_2, Q8NI35 (Q8NI35 238-335): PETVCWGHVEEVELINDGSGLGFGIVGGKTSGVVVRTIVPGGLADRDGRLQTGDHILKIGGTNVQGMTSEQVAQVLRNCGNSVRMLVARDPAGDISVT
Chain of GRID2IP_2, A4D2P6 (A4D2P6 272-370): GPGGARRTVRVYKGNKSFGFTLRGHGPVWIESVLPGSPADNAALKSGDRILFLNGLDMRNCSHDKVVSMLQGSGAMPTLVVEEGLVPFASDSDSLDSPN
Chain of DLG5_1, Q8TDM6 (Q8TDM6 617-713): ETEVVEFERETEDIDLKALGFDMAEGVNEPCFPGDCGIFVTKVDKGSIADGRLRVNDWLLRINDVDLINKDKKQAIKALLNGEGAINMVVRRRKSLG
Chain of GRASP, Q7Z6J2 (Q7Z6J2 96-193): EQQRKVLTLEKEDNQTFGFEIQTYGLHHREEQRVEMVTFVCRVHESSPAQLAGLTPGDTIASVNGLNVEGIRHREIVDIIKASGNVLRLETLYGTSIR
Chain of TJP1_2, Q07157 (Q07157 181-274): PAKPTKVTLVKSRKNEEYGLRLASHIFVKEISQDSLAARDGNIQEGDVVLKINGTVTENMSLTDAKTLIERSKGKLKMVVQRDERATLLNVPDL
Chain of SCRIB_2, Q14160 (Q14160 857-960): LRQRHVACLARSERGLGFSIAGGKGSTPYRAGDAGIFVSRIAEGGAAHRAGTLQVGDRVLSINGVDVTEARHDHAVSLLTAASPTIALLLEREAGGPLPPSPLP
Chain of GRIP2_4, Q9C0E4 (Q9C0E4 446-548): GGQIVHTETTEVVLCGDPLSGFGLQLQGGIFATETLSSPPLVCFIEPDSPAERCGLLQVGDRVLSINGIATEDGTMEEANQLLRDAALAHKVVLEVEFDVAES
Chain of LAP2, Q96RT1 (Q96RT1 other isoform, or with tags, fused parts or gaps): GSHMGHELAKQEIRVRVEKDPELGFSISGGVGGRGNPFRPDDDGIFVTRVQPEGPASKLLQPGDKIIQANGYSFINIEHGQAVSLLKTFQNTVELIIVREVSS
Chain of Inadl_1, Q8NI35 (Q8NI35 113-229): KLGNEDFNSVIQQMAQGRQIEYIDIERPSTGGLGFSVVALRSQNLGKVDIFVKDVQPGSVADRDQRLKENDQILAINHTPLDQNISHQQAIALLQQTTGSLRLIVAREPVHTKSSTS
Chain of MAGI1_2, Q96QZ7 (Q96QZ7 456-580): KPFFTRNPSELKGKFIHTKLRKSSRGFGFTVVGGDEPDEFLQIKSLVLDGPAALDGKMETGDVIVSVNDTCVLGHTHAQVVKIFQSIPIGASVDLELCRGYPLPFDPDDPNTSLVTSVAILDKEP

For SRPRPDDLEI [GJA1, P17302], the pKd entry was “below the threshold” in the assay with Inadl_2, Q8NI35; “below the threshold” with MPDZ_12, O75970; “below the threshold” with GRIP1_3, Q9Y3R0; 4.53 in the assay with TJP1_2, Q07157; “below the threshold” with Inadl_1, Q8NI35; “below the threshold” in the assay with DLG3_2, Q92796. Besides, the negative logarithm of the Kd (pKd) result in the assay with APBA1_1, Q02410 is “below the threshold”; with PARD3B_1, Q8TEW8, “below the threshold”; with GOPC, Q9HD26, “below the threshold”; with HTRA3, P83110, “below the threshold”; in the assay with SHANK1, Q9Y566 it was “below the threshold”; with MPP6, Q9NZW5 it was 3.62. Moreover, the pKd result in the assay with GRIP1_2, Q9Y3R0 was “below the threshold”; with ARHGEF11, O15085, “below the threshold”; with LAP2, Q96RT1, “below the threshold”; with DLG5_1, Q8TDM6 it was “below the threshold”; in the assay with SCRIB_2, Q14160, “below the threshold”; in the assay with GRIP2_4, Q9C0E4, “below the threshold”. The pKd entry was “below the threshold” in the assay with GRID2IP_2, A4D2P6; “below the threshold” in the assay with DLG2_3, Q15700; “below the threshold” with GRASP, Q7Z6J2; “below the threshold” with APBA2_2, Q99767; “below the threshold” with MAGI1_2, Q96QZ7; “below the threshold” with DLG3_3, Q92796.

Consider GCQGETEDVL [PTH2R, P49190], for which the pKd result with Inadl_2, Q8NI35 is recorded as “below the threshold”; with MPDZ_12, O75970 it was “below the threshold”; with GRIP1_3, Q9Y3R0 it was “below the threshold”; with TJP1_2, Q07157 it was “below the threshold”; in the assay with Inadl_1, Q8NI35 it was “below the threshold”; in the assay with DLG3_2, Q92796, “below the threshold”. The pKd result with APBA1_1, Q02410 was “below the threshold”; with PARD3B_1, Q8TEW8 it was 4.05; with GOPC, Q9HD26, “below the threshold”; with HTRA3, P83110, “below the threshold”; with SHANK1, Q9Y566 it was “below the threshold”; in the assay with MPP6, Q9NZW5, 3.91. Moreover, the pKd entry in the assay with GRIP1_2, Q9Y3R0 is “below the threshold”; in the assay with ARHGEF11, O15085, “below the threshold”; with LAP2, Q96RT1, “below the threshold”; in the assay with DLG5_1, Q8TDM6, “below the threshold”; with SCRIB_2, Q14160, “below the threshold”; with GRIP2_4, Q9C0E4, “below the threshold”. The pKd entry in the assay with GRID2IP_2, A4D2P6 was “below the threshold”; with DLG2_3, Q15700, “below the threshold”; with GRASP, Q7Z6J2, 3.62; with APBA2_2, Q99767 it was “below the threshold”; in the assay with MAGI1_2, Q96QZ7 it was “below the threshold”; with DLG3_3, Q92796, “below the threshold”.

In the case of ANGLMQTSKL [SSTR5, P35346], the pKd entry in the assay with Inadl_2, Q8NI35 was “below the threshold”; with MPDZ_12, O75970, “below the threshold”; with GRIP1_3, Q9Y3R0 it was “below the threshold”; in the assay with TJP1_2, Q07157, “below the threshold”; with Inadl_1, Q8NI35 it was “below the threshold”; in the assay with DLG3_2, Q92796 it was 3.75. For the same molecule, the pKd result with APBA1_1, Q02410 was “below the threshold”; with PARD3B_1, Q8TEW8, 4.16; with GOPC, Q9HD26, 4.93; with HTRA3, P83110, “below the threshold”; with SHANK1, Q9Y566, 4.65; in the assay with MPP6, Q9NZW5 it was “below the threshold”. The pKd result was “below the threshold” with GRIP1_2, Q9Y3R0; 3.8 with ARHGEF11, O15085; “below the threshold” with LAP2, Q96RT1; “below the threshold” with DLG5_1, Q8TDM6; “below the threshold” in the assay with SCRIB_2, Q14160; “below the threshold” in the assay with GRIP2_4, Q9C0E4. The negative logarithm of the Kd (pKd) with GRID2IP_2, A4D2P6 is 4.48; with DLG2_3, Q15700 it was 3.48; in the assay with GRASP, Q7Z6J2, 4.68; in the assay with APBA2_2, Q99767, “below the threshold”; in the assay with MAGI1_2, Q96QZ7 it was “below the threshold”; with DLG3_3, Q92796 it was “below the threshold”.

Take NVYGTESVKI [GRIA3, P42263]: the pKd result with Inadl_2, Q8NI35 was “below the threshold”; with MPDZ_12, O75970, “below the threshold”; with GRIP1_3, Q9Y3R0, “below the threshold”; with TJP1_2, Q07157, 3.59; in the assay with Inadl_1, Q8NI35 it was “below the threshold”; with DLG3_2, Q92796, “below the threshold”. The negative-log Kd (pKd) result with APBA1_1, Q02410 is “below the threshold”; with PARD3B_1, Q8TEW8, 4.8; in the assay with GOPC, Q9HD26, “below the threshold”; with HTRA3, P83110 it was “below the threshold”; with SHANK1, Q9Y566, “below the threshold”; with MPP6, Q9NZW5 it was “below the threshold”. Moreover, the pKd result is listed as “below the threshold” with GRIP1_2, Q9Y3R0; “below the threshold” in the assay with ARHGEF11, O15085; “below the threshold” with LAP2, Q96RT1; “below the threshold” with DLG5_1, Q8TDM6; “below the threshold” with SCRIB_2, Q14160; “below the threshold” in the assay with GRIP2_4, Q9C0E4. For the same molecule, the pKd entry with GRID2IP_2, A4D2P6 is listed as “below the threshold”; with DLG2_3, Q15700, “below the threshold”; with GRASP, Q7Z6J2, “below the threshold”; in the assay with APBA2_2, Q99767, “below the threshold”; with MAGI1_2, Q96QZ7 it was “below the threshold”; with DLG3_3, Q92796, “below the threshold”.

The term pKd denotes −log10 of the Kd, conventionally taken in molar units.
